Data taken from US20230133775A1.

Target: Leucine-rich repeat-containing protein 15 (LRRC15) on LRRC15-expressing cells (UniProt Q8TF66)
Assay: cell-based or functional assay

Chain of Leucine-rich repeat-containing protein 15 (LRRC15) on LRRC15-expressing cells (Q8TF66 22-581 limits assumed): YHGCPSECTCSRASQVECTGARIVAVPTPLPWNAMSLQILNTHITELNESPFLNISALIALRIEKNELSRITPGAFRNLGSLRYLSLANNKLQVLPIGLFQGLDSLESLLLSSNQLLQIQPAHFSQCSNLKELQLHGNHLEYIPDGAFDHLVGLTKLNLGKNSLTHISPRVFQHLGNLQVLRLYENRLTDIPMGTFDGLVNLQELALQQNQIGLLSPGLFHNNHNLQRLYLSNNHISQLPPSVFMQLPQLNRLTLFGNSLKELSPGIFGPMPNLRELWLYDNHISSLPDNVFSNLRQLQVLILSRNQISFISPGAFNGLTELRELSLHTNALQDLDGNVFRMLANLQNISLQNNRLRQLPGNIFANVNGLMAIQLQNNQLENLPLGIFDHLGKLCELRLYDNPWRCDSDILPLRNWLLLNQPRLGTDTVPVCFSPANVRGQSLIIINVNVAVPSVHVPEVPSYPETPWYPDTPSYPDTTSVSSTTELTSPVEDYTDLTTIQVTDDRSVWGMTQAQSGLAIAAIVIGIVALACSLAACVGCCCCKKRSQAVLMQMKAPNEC

non-specific low fucose isotype control (IgG1-LF) (antibody)
target cell death in the ADCC assay with NK92-CD16 effector cells: < 30%
